Laboratory results reported in US20150344570A1 (published 2015).
Positions count from the first letter of the chain named. In names and notes the source's numbering stands.

T1: FcγRIIa R (FcγRIIa allotype with Arg at position 131), extracellular domain with C-terminal His tag (human, UniProt P12318 34-217)
T1 chain: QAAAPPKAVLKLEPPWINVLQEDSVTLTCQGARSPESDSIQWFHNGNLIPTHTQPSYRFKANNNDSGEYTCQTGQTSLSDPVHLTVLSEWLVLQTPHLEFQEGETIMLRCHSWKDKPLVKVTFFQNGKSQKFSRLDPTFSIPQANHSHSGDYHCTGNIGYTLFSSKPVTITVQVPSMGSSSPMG

T2: FcγRIIb, extracellular domain with C-terminal His tag (human, UniProt P31994 43-217)
T2 construct: extracellular domain; also called FcgRIIb; 2b; not shown: His tag attached to the C terminus
T2 sequence (looked up): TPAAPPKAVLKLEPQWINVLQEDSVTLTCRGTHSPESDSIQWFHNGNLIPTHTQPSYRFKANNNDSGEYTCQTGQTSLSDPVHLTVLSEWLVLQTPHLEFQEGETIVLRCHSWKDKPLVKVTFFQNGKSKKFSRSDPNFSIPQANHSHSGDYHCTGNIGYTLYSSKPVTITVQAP

T3: FcgRIIa H (human, UniProt P12318 34-217)
T3 construct: extracellular domain; also called FcγRIIa H; FcγRIIa type H
T3 sequence (looked up): T1 chain with R134H

T4: FcgRIIa R (human, UniProt P12318 34-217)
T4 construct: extracellular domain; also called FcγRIIa R; FcγRIIa type R
T4 sequence (looked up): T1 chain

T5: FcgRIIb (human, UniProt P31994 43-217)
T5 construct: extracellular domain; also called FcγRIIb; CD32B
T5 sequence (looked up): T2 sequence (looked up)

T6: FcgRIIb (human, UniProt P31994 43-217)
T6 construct: extracellular domain; Soluble extracellular domain with C-terminal His tag, expressed in FreeStyle293 cells; also called FcγRIIb; 2b; not shown: His tag at the C terminus
T6 sequence (looked up): T2 sequence (looked up)

T7: FcgRIIaR (human, UniProt P12318 34-217)
T7 construct: extracellular domain; Soluble extracellular domain with C-terminal His tag, expressed in FreeStyle293 cells; also called FcγRIIa R; FcgRIIa type R; not shown: His tag at the C terminus
T7 sequence (looked up): T1 chain

B1: GpH7-A5/GpH7-B3 variant I332_11K/GpL16-k0 (heterodimerized antibody He Ab, I332K in one H chain) (antibody, human IgG1, kappa)
heavy 1: not shown
heavy 2: not shown
light: DIVMTQSPLSLPVTPGEPASISCQASESLVHSNRNTYLHWYLQKPGQSPQLLIYKVSNRFSGVPDRFSGSGSGTDFTLKISRVEAEDVGVYYCSQNTHVPPTFGQGTKVEIERTVAAPSVFIFPPSDEQLKSGTASVVCLLNNFYPREAKVQWKVDNALQSGNSQESVTEQDSKDSTYSLSSTLTLSKADYEKHKVYACEVTHQGLSSPVTKSFNRGEC
notes: Anti-glypican-3 human IgG1-type antibody; the alteration is in only one of the two H chains (the GpH7-B3 chain)
B2: GpH7-Kn045/GpH7-Hl055/GpL16-k0 (antibody, human IgG1, kappa)
heavy 1: QVQLVQSGAEVKKPGASVTVSCKASGYTFTDYEMHWIRQPPGEGLEWIGAIDPKTGDTAYSESFQDRVTLTADKSTSTAYMELSSLTSEDTAVYYCTRFYSYTYWGQGTLVTVSSASTKGPSVFPLAPSSKSTSGGTAALGCLVKDYFPEPVTVSWNSGALTSGVHTFPAVLQSSGLYSLSSVVTVPSSSLGTQTYICNVNHKPSNTKVDKKVEPKSCDKTHTCPPCPAPEYYAGPSVFLFPPKPKDTLMISRTPEVTCVVVDVSDEDPEVKFNWYVDGVEVHNAKTKPREEQYNATYRVVSVLTVLHQDWLNGKEYKCKVSNKALPAPIEKTISKAKGQPREPQVCTLPPSRDELTKNQVSLWCLVKGFYPSDIAVEWESNGQPENNYKTTPPVLDSDGSFFLYSKLTVDKSRWQQGNVFSCSVMHEALHNHYTQKSLSLSP
heavy 2: QVQLVQSGAEVKKPGASVTVSCKASGYTFTDYEMHWIRQPPGEGLEWIGAIDPKTGDTAYSESFQDRVTLTADKSTSTAYMELSSLTSEDTAVYYCTRFYSYTYWGQGTLVTVSSASTKGPSVFPLAPSSKSTSGGTAALGCLVKDYFPEPVTVSWNSGALTSGVHTFPAVLQSSGLYSLSSVVTVPSSSLGTQTYICNVNHKPSNTKVDKKVEPKSCDKTHTCPPCPAPELLAGPDVFLFPPKPKDTLMISRTPEVTCVVVDVSHEDPEVKFNWYVDGVEVHNAKTKPREELYNSTYRVVSVLTVLHQDWLNGKEYKCKVSNKALPMPEEKTISKAKGQPREPQVYTLPPSRCELTKNQVSLSCAVKGFYPSDIAVEWESNGQPENNYKTTPPVLDSDGSFFLVSKLTVDKSRWQQGNVFSCSVMHEALHNHYTQKSLSLSP
light: B1 light
notes: Heterodimerized antibody: knob chain L234Y/L235Y/G236A/H268D/S298A, hole chain G236A/S239D/Q295L/A330M/I332E; also called Kn045/Hl055
B3: GpH7-A5/GpH7-B3 variant L328_18N/GpL16-k0 (heterodimerized antibody He Ab, L328N in one H chain) (antibody, human IgG1, kappa)
heavy 1: not shown
heavy 2: not shown
light: B1 light
notes: as for B1
B4: GpH7-Kn056/GpH7-Hl055/GpL16-k0 (antibody, human IgG1, kappa)
heavy 1: B2 heavy 1 with Q293L
heavy 2: B2 heavy 2
light: B1 light
notes: Heterodimerized antibody: knob chain L234Y/L235Y/G236A/H268D/Q295L/S298A, hole chain G236A/S239D/Q295L/A330M/I332E; also called Kn056/Hl055
B5: GpH7-A5/GpH7-B3 variant L328_15Y/GpL16-k0 (heterodimerized antibody He Ab, L328Y in one H chain) (antibody, human IgG1, kappa)
heavy 1: not shown
heavy 2: not shown
light: B1 light
notes: as for B1
B6: GpH7-Kn037/GpH7-Hl036/GpL16-k0 (antibody, human IgG1, kappa)
heavy 1: B2 heavy 1 with Y232L, Y233L, S237D, D266H, A296S, I330E
heavy 2: B2 heavy 2 with L293Q, M328A
light: B1 light
notes: also called Kn037/Hl036
B7: GpH7-A5/GpH7-B3 variant L328_20W/GpL16-k0 (heterodimerized antibody He Ab, L328W in one H chain) (antibody, human IgG1, kappa)
heavy 1: not shown
heavy 2: not shown
light: B1 light
notes: as for B1
B8: GpH7-Kn045/GpH7-Hl048/GpL16-k0 (antibody, human IgG1, kappa)
heavy 1: B2 heavy 1
heavy 2: B2 heavy 2 with L293Q, M328K
light: B1 light
notes: Heterodimerized antibody: knob chain L234Y/L235Y/G236A/H268D/S298A, hole chain G236A/S239D/A330K/I332E; also called Kn045/Hl048
B9: GpH7-Kn032/GpH7-Hl032/GpL16-k0 (antibody, human IgG1, kappa)
heavy 1: B2 heavy 2 with A234G, L293Q, M328L, Y347C, C354D, S364W, A366L, V405Y
heavy 2: B2 heavy 2 with A234G, L293Q, M328L
light: B1 light
notes: also called Kn032/Hl032
B10: IL6R-BP256/IL6R-L (antibody, human IgG1, kappa)
heavy: QVQLQESGPGLVKPSETLSLTCAVSGHSISHDHAWSWVRQPPGEGLEWIGFISYSGITNYNPSLQGRVTISRDNSKNTLYLQMNSLRAEDTAVYYCARSLARTTAMDYWGEGTLVTVSSASTKGPSVFPLAPSSKSTSGGTAALGCLVKDYFPEPVTVSWNSGALTSGVHTFPAVLQSSGLYSLSSVVTVPSSSLGTQTYICNVNHKPSNTKVDKKVEPKSCDKTHTCPPCPAPDLLGDDDVFLFPPKPKDTLMISRTPEVTCVVVDVSDEDGEVKFNWYVDGVEVHNAKTKPREEQYNSTYRVVSVLTVLHQDWLNGKEYKCKVSNKALPRPIEKTISKAKGQPREPQVYTLPPSRDELTKNQVSLTCLVKGFYPSDIAVEWESNGQPENNYKTTPPVLDSDGSFFLYSKLTVDKSRWQQGNVFSCSVMHEALHNHYTQESLSLSP
light: not shown
notes: Homodimerized antibody, S239D in both H chains
B11: IL6R-BP257/IL6R-L (antibody, human IgG1, kappa)
heavy: B10 heavy with D241E
light: not shown
notes: Homodimerized antibody, S239E in both H chains

Tests used:
[1] = molecular target: T1, FcγRIIa R (FcγRIIa allotype with Arg at …); experiment: SPR (Biacore T100); ratio of He/Con for FcγRIIa R to He/Con for FcγRIIb of the same antibody
[2] = molecular target: T2, FcγRIIb, extracellular domain with …; experiment: SPR (Biacore T100), antibody captured on antigen peptide chip, FcγR as analyte; binding amount relative to control heterodimerized antibody
Method: (§1) The heterodimerized antibodies He Abs in which one of the H chains was introduced with an alteration were assayed for their binding activities to each activating FcγR and inhibitory FcγR according to the method described in Example 4. […] The activating FcγRs in FIGS. 26, 27, 28, and 29 are FcγRIa, FcγRIIa (R), FcγRIIa (H), and FcγRIIIa, respectively.
(§2) Analysis of interaction between objective antibody and the FcγR was carried out using Biacore T100 (GE Healthcare). HBS-EP+ (GE Healthcare) was used as the running buffer, and the measurement temperature was set to 25° C. Chips produced by immobilizing the antigen peptide by the amine coupling method to a Series S Sencor Chip CM5 (GE Healthcare), or alternatively, chips produced by allowing preliminarily biotinylated antigen peptides to interact with and immobilize onto a Series S Sensor Chip SA (certified) (GE Healthcare) were used. Antibodies of interest were captured onto an antigen peptide-immobilized chip, and allowed to interact to each FcγR diluted with running buffer. To regenerate and repeatedly use the chip, the antibodies captured on the chip were washed off by reacting 10 mM glycine-HCl, pH 1.5.

[3] = molecular target: T1, FcγRIIa R (FcγRIIa allotype with Arg at …); experiment: as above
Method: as §1, §2

[4] = molecular target: T8, FcgRIa (human, UniProt P12314 16-292); experiment: SPR (Biacore); KD of GpH7-Kn033/GpH7-Hl033/GpL16-k0 for this FcγR divided by KD of this antibody
T8 construct: extracellular domain; also called FcγRIa; FcγRI
T8 sequence (P12314 16-292): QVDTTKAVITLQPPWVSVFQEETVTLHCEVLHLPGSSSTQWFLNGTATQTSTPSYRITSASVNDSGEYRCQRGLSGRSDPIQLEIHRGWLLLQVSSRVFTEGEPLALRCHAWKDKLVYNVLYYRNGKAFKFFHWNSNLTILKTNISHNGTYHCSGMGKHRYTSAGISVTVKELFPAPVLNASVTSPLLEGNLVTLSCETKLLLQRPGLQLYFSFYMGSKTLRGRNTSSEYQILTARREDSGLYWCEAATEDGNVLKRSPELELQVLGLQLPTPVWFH
Method: (§3) These antibodies were assessed for the binding activity to each FcγR according to the method described in Reference Example 2.
as §2

[5] = molecular target: T3, FcgRIIa H; experiment: as above
Method: as §3, §2

[6] = molecular target: T4, FcgRIIa R; experiment: as above
Method: as §3, §2

[7] = molecular target: T5, FcgRIIb; experiment: as above
Method: as §3, §2

[8] = molecular target: T9, FcgRIIIa F (human, UniProt P08637 17-208); experiment: as above
T9 construct: extracellular domain; also called FcγRIIIa F; FcγRIIIaF
T9 sequence (P08637 17-208): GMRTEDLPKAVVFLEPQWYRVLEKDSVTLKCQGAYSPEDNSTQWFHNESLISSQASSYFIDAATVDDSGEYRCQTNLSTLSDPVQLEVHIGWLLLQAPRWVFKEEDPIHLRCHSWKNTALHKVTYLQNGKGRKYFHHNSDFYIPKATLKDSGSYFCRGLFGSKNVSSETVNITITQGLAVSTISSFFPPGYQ
Method: as §3, §2

[9] = molecular target: T10, FcgRIIIa V (human, UniProt P08637 17-208); experiment: as above
T10 construct: extracellular domain; also called FcγRIIIa V; FcγRIIIaV
T10 sequence (P08637 17-208 F176V limits assumed): as the sequence (P08637 17-208) above, with F160V counted along it
Method: as §3, §2

[10] = molecular target: T6, FcgRIIb; experiment: SPR (Biacore); KD of the variant for FcgRIIaR divided by its KD for FcgRIIb
[11] = molecular target: T6, FcgRIIb; experiment: SPR (Biacore), antibody captured on chip, FcgR extracellular domain as analyte
[12] = molecular target: T7, FcgRIIaR; experiment: as above

Row | Binder | He_2aR/2b (IIaR/IIb) [1] | He/Con_2b (IIb binding) [2] | He/Con_2aR (IIaR binding) [3] | KD ratio [4] [fold] | KD ratio [5] [fold] | KD ratio [6] [fold] | KD ratio [7] [fold] | KD ratio [8] [fold] | KD ratio [9] [fold] | KD(IIaR)/KD(IIb) [10] | Relative KD (KD of IL6R-B3/IL6R-L divided by KD of the variant) [11] | Relative KD (KD of IL6R-B3/IL6R-L divided by KD of the variant) [12]
1 | B1 | 0.61 | 70.9 relative binding activity, GpH7-A5/GpH7-B3/GpL16-k0 = 100 | 43.1 relative binding activity, GpH7-A5/GpH7-B3/GpL16-k0 = 100 |  |  |  |  |  |  |  |  | 
2 | B2 |  |  |  | 3.7 | 21 | 56 | 15 | 985 | 300 |  |  | 
3 | B3 | 0.73 | 80.8 relative binding activity, GpH7-A5/GpH7-B3/GpL16-k0 = 100 | 59.4 relative binding activity, GpH7-A5/GpH7-B3/GpL16-k0 = 100 |  |  |  |  |  |  |  |  | 
4 | B4 |  |  |  | 2.9 | 20 | 44 | 14 | 1110 | 327 |  |  | 
5 | B5 | 0.7 | 193 relative binding activity, GpH7-A5/GpH7-B3/GpL16-k0 = 100 | 136 relative binding activity, GpH7-A5/GpH7-B3/GpL16-k0 = 100 |  |  |  |  |  |  |  |  | 
6 | B6 |  |  |  | 6 | 22 | 43 | 16 | 161 | 84 |  |  | 
7 | B7 | 0.66 | 235 relative binding activity, GpH7-A5/GpH7-B3/GpL16-k0 = 100 | 155 relative binding activity, GpH7-A5/GpH7-B3/GpL16-k0 = 100 |  |  |  |  |  |  |  |  | 
8 | B8 |  |  |  | 3.7 | 52 | 154 | 34 | 419 | 170 |  |  | 
9 | B9 |  |  |  | 24 | 1.2 | 3 | 8.2 | 381 | 182 |  |  | 
10 | B10 |  |  |  |  |  |  |  |  |  | 8.4 | 35.7 | 1.5
11 | B11 |  |  |  |  |  |  |  |  |  | 3 | 7.2 | 0.9
